# ± gives the standard deviation of the averaged measurements.
# B1: library; a variant is named by its letters at N, in order (parent)
# chain: GCUGUCACCGGUGCUUGGUACGUUAUAUUCAGCCGGUCUGAUGAGUCUNNNNNNAGACGAAACAGC
# Legend:
# (6R,S)-folinic acid [1] = variants of: B1; experiment: FACS-Seq fitted mean relative fluorescence mCherry/BFP without ligand (log10 relative fluorescence); HEK293T overexpressing SLC46A1; higher = higher reporter protein expression; settings: without (6R,S)-folinic acid; ligand present: no
# Summary of the method: (§1)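 Reporter cells were enriched HEK293T libraries transduced by lentivirus with mCherry behind the ribozyme switch and with an EF1α-BFP marker. Following 48 h with or without ligand, they were sorted into 6 mCherry/BFP bins, and bin genomic DNA was PCR-amplified, barcoded and MiSeq-sequenced. Fluorescence was computed as the fitted normal mean of the bin counts. The fit used log10(mCherry/BFP), with scaling to five spiked-in control ribozymes.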
# (6R,S)-folinic acid [2] = variants of: B1; experiment: normalized RNA/DNA level without ligand (relative to sTRSVctl = 100) (log10 (% of sTRSVctl)); HEK293T overexpressing SLC46A1; higher = less ribozyme self-cleavage, higher mRNA level; settings: without (6R,S)-folinic acid; ligand present: no
# Experimental: (§2)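 Hammerhead (sTRSV) ribozyme switch libraries with a ligand aptamer grafted on stem I and a randomized N4-6 loop II, cloned into the 3' UTR of mCherry and transiently transfected into HEK293T cells; RNA-Seq 72 h post transfection with ligand added 1 h before transfection; RNA read count / plasmid DNA read count normalized to the non-cleaving sTRSVctl (x100), log10; sequences with >100 DNA reads. FACS-Seq: lentiviral library sorted into 6 bins after 48 h ligand, log-normal fit mean of mCherry/BFP scaled to controls. Printed sequences are partial switch sequences.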
# (6R,S)-folinic acid [3] = variants of: B1; experiment: FACS-Seq fitted mean relative fluorescence mCherry/BFP with ligand (log10 relative fluorescence); HEK293T overexpressing SLC46A1; ligand concentration (+) FACS-Seq: 6 mM; higher = higher reporter protein expression; settings: with (6R,S)-folinic acid; ligand present: yes
# Summary of the method: as §1
# (6R,S)-folinic acid [4] = variants of: B1; experiment: normalized RNA/DNA level with ligand (relative to sTRSVctl = 100) (log10 (% of sTRSVctl)); HEK293T overexpressing SLC46A1; ligand concentration (+) RNA-Seq: 6 mM; higher = less ribozyme self-cleavage, higher mRNA level; settings: with (6R,S)-folinic acid; ligand present: yes
# Experimental: as §2
Variant,"FACS-Seq fitted mean (log10) ((6R,S)-folinic acid [1])","normalized RNA/DNA level without ligand (log10) ((6R,S)-folinic acid [2])","FACS-Seq fitted mean (log10) ((6R,S)-folinic acid [3])","normalized RNA/DNA level with ligand (log10) ((6R,S)-folinic acid [4])"
GCUGUCACCGGUGCUUGGUACGUUAUAUUCAGCCGGUCUGAUGAGUCUCAGCUGAGACGAAACAGC,0.118 ± 0.025,2.073 ± 0.01,0.1 ± 0.12,2.06 ± 0.022
GCUGUCACCGGUGCUUGGUACGUUAUAUUCAGCCGGUCUGAUGAGUCUCAGGCUAGACGAAACAGC,0.511 ± 0.14,2.055 ± 0.0024,0.544 ± 0.066,2.01 ± 0.036
GCUGUCACCGGUGCUUGGUACGUUAUAUUCAGCCGGUCUGAUGAGUCUAAGGUAAGACGAAACAGC,0.34 ± 0.014,1.74 ± 0.024,0.228 ± 0.14,1.83 ± 0.025
GCUGUCACCGGUGCUUGGUACGUUAUAUUCAGCCGGUCUGAUGAGUCUAAGGCCAGACGAAACAGC,0.18 ± 0.073,2.059 ± 0.012,0.288 ± 0.18,2.04 ± 0.081
GCUGUCACCGGUGCUUGGUACGUUAUAUUCAGCCGGUCUGAUGAGUCUAAGGAUAGACGAAACAGC,0.466 ± 0.0051,1.917 ± 0.0072,0.53 ± 0.073,1.966 ± 0.013
GCUGUCACCGGUGCUUGGUACGUUAUAUUCAGCCGGUCUGAUGAGUCUAAGGAAAGACGAAACAGC,0.513 ± 0.14,1.937 ± 0.01,0.429 ± 0.1,2 ± 0.023
GCUGUCACCGGUGCUUGGUACGUUAUAUUCAGCCGGUCUGAUGAGUCUAAGGAGAGACGAAACAGC,0.211 ± 0.081,1.789 ± 0.017,0.263 ± 0.14,2 ± 0.046
GCUGUCACCGGUGCUUGGUACGUUAUAUUCAGCCGGUCUGAUGAGUCUUAGGAUAGACGAAACAGC,0.37 ± 0.051,1.9235 ± 0.00039,0.358 ± 0.23,2 ± 0.052
GCUGUCACCGGUGCUUGGUACGUUAUAUUCAGCCGGUCUGAUGAGUCUUAGGAAAGACGAAACAGC,0.503 ± 0.15,1.884 ± 0.01,0.822 ± 0.011,1.98 ± 0.038
GCUGUCACCGGUGCUUGGUACGUUAUAUUCAGCCGGUCUGAUGAGUCUUAGGACAGACGAAACAGC,0.556 ± 0.12,1.982 ± 0.019,0.551 ± 0.11,2 ± 0.025
GCUGUCACCGGUGCUUGGUACGUUAUAUUCAGCCGGUCUGAUGAGUCUUAGGGUAGACGAAACAGC,0.607 ± 0.2,1.885 ± 0.015,0.604 ± 0.026,1.98 ± 0.049
GCUGUCACCGGUGCUUGGUACGUUAUAUUCAGCCGGUCUGAUGAGUCUUAGGGAAGACGAAACAGC,0.295 ± 0.13,1.8512 ± 0.0012,0.501 ± 0.29,2 ± 0.03
GCUGUCACCGGUGCUUGGUACGUUAUAUUCAGCCGGUCUGAUGAGUCUUAGGGGAGACGAAACAGC,0.0613 ± 0.073,1.648 ± 0.0041,0.172 ± 0.14,1.97 ± 0.04
GCUGUCACCGGUGCUUGGUACGUUAUAUUCAGCCGGUCUGAUGAGUCUGAGGAUAGACGAAACAGC,0.372 ± 0.013,1.963 ± 0.0066,0.0226 ± 0.65,2.02 ± 0.033
GCUGUCACCGGUGCUUGGUACGUUAUAUUCAGCCGGUCUGAUGAGUCUGAGGGAAGACGAAACAGC,0.161 ± 0.042,1.969 ± 0.017,0.0592 ± 0.019,2.04 ± 0.028
GCUGUCACCGGUGCUUGGUACGUUAUAUUCAGCCGGUCUGAUGAGUCUGAGGGUAGACGAAACAGC,0.338 ± 0.027,2.001 ± 0.016,0.556 ± 0.037,2.04 ± 0.041
GCUGUCACCGGUGCUUGGUACGUUAUAUUCAGCCGGUCUGAUGAGUCUAAGGGUAGACGAAACAGC,-0.0258 ± 0.095,1.952 ± 0.0044,-0.308 ± 0.14,2.02 ± 0.032
GCUGUCACCGGUGCUUGGUACGUUAUAUUCAGCCGGUCUGAUGAGUCUAAGGGAAGACGAAACAGC,0.125 ± 0.041,1.949 ± 0.0036,0.0354 ± 0.14,2.03 ± 0.03
GCUGUCACCGGUGCUUGGUACGUUAUAUUCAGCCGGUCUGAUGAGUCUCAGGACAGACGAAACAGC,0.301 ± 0.073,1.97 ± 0.022,0.0891 ± 0.079,1.97 ± 0.078
GCUGUCACCGGUGCUUGGUACGUUAUAUUCAGCCGGUCUGAUGAGUCUGAGGCAAGACGAAACAGC,0.286 ± 0.031,2.017 ± 0.0044,0.296 ± 0.25,2.05 ± 0.026
GCUGUCACCGGUGCUUGGUACGUUAUAUUCAGCCGGUCUGAUGAGUCUCAGGUAAGACGAAACAGC,0.0884 ± 0.016,1.667 ± 0.0023,0.0948 ± 0.22,1.806 ± 0.013
